The values below come from patent publication US20260274928A1.

This test deals with 25-strain panel of pre- and post-Omicron VSV-based SARS-CoV-2 S pseudotyped viruses. Put plainly: cell-based or functional assay.

B1: S2V29-v37.2 (antibody, V domains shown)
VH: EVQLVESGGSVVQPGRALRLSCAASGITFSSFGMYWVRQAPGKGLEWLGYIAYDGSDTYYADSVKGRFTISRDNSKNTLYLQMNSLRIEDTAVYYCAKDYYPLLSYYYGLDVWGQGTTVTVSS
VL: QSVLTQPRSVSGSPGQSVTISCTGTSSDVGAYNYVSWYQQHPGKAPKFMIYDVDQRPSGVPDRFSGSKSGNTASLIISGLQAEDEADYYCSSYAGSYIWVFGGGTQLTVL
As for B1, the IC50, pseudovirus neutralization was in the range of 1.9 to 31.2 ng/mL and the median IC50, pseudovirus neutralization came to 8.2 ng/mL.
